B1: 03F11-35GS-281F12 (bispecific antibody)
chain: EVQLVESGGGSVQPGGSLTLSCGTSGRTFNVMGWFRQAPGKEREFVAAVRWSSTGIYYTQYADSVKSRFTISRDNAKNTVYLEMNSLKPEDTAVYYCAADTYNSNPARWDGYDFRGQGTQVTVSSGGGGSGGGGSGGGGSGGGGSGGGGSGGGGSGGGGSEVQLVESGGGLVQAGDSLRLSCAASGRAFSRYAMGWFRQAPGKEREFVAAIGWGPSKTNYADSVKGRFTISRDNAKNTVYLQMNTLKPEDTAVYSCAAKFVNTDSTWSRSEMYTYWGQGTQVTVSS
notes: Bispecific Nanobody construct, CD4 arm N-terminal; also called CD4-35GS-CXCR4; 3F11-281F12; not shown: C-terminal c-myc-His6 tag (E. coli) or FLAG3-His6 tag (Pichia)
B2: 281F12-35GS-03F11 (bispecific antibody)
chain: EVQLVESGGGLVQAGDSLRLSCAASGRAFSRYAMGWFRQAPGKEREFVAAIGWGPSKTNYADSVKGRFTISRDNAKNTVYLQMNTLKPEDTAVYSCAAKFVNTDSTWSRSEMYTYWGQGTQVTVSSGGGGSGGGGSGGGGSGGGGSGGGGSGGGGSGGGGSEVQLVESGGGSVQPGGSLTLSCGTSGRTFNVMGWFRQAPGKEREFVAAVRWSSTGIYYTQYADSVKSRFTISRDNAKNTVYLEMNSLKPEDTAVYYCAADTYNSNPARWDGYDFRGQGTQVTVSS
notes: Bispecific Nanobody construct, CXCR4 arm N-terminal; also called 281F12-35GS-3F11; CXCR4-35GS-CD4; not shown: C-terminal c-myc-His6 tag (E. coli) or FLAG3-His6 tag (Pichia)

Legend:
human CXCR4 [1] = target: T1, human CXCR4 (human, UniProt P61073 1-352); assay: inhibition of 12G5 (competitor, 10 nM PE-labelled) binding, Jurkat cells; 12G5 mAb binding inhibition on Jurkat cells (CD4 low)
T1 construct: also called hCXCR4

human CXCR4 [2] = target: T1, human CXCR4; assay: inhibition of 12G5 binding, Jurkat cells; 12G5 inhibition on Jurkat cells; potency ratio to monovalent 281F12
human CXCR4 [3] = target: T1, human CXCR4; assay: cell-based or functional assay
human CXCR4 [4] = target: T1, human CXCR4; assay: inhibition of 12G5 (competitor, 10 nM PE-labelled) binding, SUPT-1 cells; 12G5 mAb binding inhibition on SUPT-1 cells (CXCR4 and CD4 co-expressed)
human CXCR4 [5] = target: T1, human CXCR4; assay: cell-based or functional assay; remark: listed apart in the source
human CXCR4 [6] = target: T1, human CXCR4; assay: SDF-1^AF647 displacement, SUPT-1 cells, flow cytometry, n = 3; SDF-1^AF647 displacement on SUPT-1 cells (CXCR4 and CD4 co-expressed)
human CXCR4 [7] = target: T1, human CXCR4; assay: inhibition of 12G5 (competitor, 10 nM PE-labelled) binding, THP-1 cells
human CXCR4 [8] = target: T1, human CXCR4; assay: SDF-1^AF647 displacement, SUPT-1 cells, flow cytometry, n = 3
human CXCR4 [9] = target: T1, human CXCR4; assay: inhibition of 12G5 (competitor, 10 nM PE-labelled) binding, SUPT-1 cells
human CXCR4 [10] = target: T1, human CXCR4; assay: inhibition of 12G5 binding, Jurkat cells
human CXCR4 [11] = target: T1, human CXCR4; assay: inhibition of 12G5 (competitor, 10 nM PE-labelled) binding, Jurkat cells

T1 sequence (P61073 whole entry): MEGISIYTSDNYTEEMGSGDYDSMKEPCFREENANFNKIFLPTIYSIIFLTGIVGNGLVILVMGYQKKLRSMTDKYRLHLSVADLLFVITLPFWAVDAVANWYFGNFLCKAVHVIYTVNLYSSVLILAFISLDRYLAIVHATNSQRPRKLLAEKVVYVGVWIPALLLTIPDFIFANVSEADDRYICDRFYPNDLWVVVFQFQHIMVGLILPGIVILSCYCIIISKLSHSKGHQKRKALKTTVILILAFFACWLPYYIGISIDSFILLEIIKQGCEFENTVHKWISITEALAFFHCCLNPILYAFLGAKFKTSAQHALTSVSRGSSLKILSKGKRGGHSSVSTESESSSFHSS

Binder | IC50 (human CXCR4 [1]) | fold loss of potency compared to monovalent CXCR4 Nanobody construct (human CXCR4 [2]) | IC50, SDF-1 induced Ca2+ signaling, U87-CD4-CXCR4 cells (human CXCR4 [3]) | IC50 (human CXCR4 [4]) | IC50, inhibition of SDF-1a-mediated chemotaxis, Jurkat E6-1 cells (human CXCR4 [5]) | IC50, inhibition of SDF-1a-mediated chemotaxis, MOLM-13 cells (human CXCR4 [5]) | Ratio to 281F12 (fold increase in potency), chemotaxis, Jurkat E6-1 cells (human CXCR4 [5]) | Ratio to 281F12 (fold increase in potency), chemotaxis, MOLM-13 cells (human CXCR4 [5]) | IC50 (human CXCR4 [6]) | IC50 (human CXCR4 [7]) | IC50 (human CXCR4 [8]) | IC50 (human CXCR4 [9]) | fold loss of potency compared to monovalent CXCR4 Nanobody construct (human CXCR4 [10]) | IC50 (human CXCR4 [11])
B1 | 631 nM | 50 fold | 3.43 nM | 56.6 nM | 460 nM | 1.29 nM | 0.2 fold | 67 fold | 1.5 nM | – | – | – | – | –
B2 | – | – | 5.31 nM | – | 110 nM | 0.59 nM | 0.8 fold | 146 fold | – | 2.48 nM | 0.96 nM | 1.5 nM | 2 fold | 29.3 nM
